Residue numbers refer to the chain shown, from its start.
Experiments:
[1] = biological target: T1, huIL-18Rβ-HisAvi (human, UniProt O95256 20-356, biotinylated in the Octet blocking assay); experiment: SPR Biacore T200, mAb captured on anti-human Fc, huIL-18Rβ-HisAvi as analyte, PBST pH 6.0, 37 °C, 1:1 Binding fit
T1 construct: Soluble analyte in all SPR runs; captured on streptavidin sensors in the Octet assay; also called human IL-18Rβ; human IL-18Rβ-Avi-His
T1 sequence: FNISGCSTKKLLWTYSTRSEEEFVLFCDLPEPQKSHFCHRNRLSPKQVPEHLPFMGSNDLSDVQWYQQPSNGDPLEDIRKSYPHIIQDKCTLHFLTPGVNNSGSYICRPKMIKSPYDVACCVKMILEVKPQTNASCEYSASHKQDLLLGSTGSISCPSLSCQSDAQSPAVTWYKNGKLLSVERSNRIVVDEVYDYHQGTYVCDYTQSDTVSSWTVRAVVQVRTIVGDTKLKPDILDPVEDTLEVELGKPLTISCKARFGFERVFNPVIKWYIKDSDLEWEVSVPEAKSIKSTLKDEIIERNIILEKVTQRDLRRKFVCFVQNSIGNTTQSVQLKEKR

[2] = biological target: T1, huIL-18Rβ-HisAvi; experiment: SPR T200, mAb on anti-hFc, 37C, pH 7.4; pH 7.4
[3] = biological target: T2, human IL-18Rβ on cells (human, UniProt O95256 20-599); experiment: cell-based or functional assay
T2 sequence: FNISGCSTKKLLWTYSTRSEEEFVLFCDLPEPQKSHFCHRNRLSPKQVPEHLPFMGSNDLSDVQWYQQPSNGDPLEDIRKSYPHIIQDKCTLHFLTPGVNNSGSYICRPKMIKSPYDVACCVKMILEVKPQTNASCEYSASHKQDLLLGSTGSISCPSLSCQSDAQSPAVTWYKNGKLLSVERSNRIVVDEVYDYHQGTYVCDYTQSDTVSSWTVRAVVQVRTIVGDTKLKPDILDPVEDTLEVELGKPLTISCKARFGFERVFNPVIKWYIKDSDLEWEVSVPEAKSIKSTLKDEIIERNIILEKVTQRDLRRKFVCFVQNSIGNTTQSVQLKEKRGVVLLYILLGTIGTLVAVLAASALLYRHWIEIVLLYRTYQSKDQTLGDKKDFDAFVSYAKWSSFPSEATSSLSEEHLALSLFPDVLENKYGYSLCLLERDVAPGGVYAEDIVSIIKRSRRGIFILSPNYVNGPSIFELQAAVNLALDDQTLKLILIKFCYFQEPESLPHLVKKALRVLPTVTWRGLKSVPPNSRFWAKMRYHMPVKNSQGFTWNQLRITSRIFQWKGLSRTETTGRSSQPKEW

[4] = biological target: T1, huIL-18Rβ-HisAvi; experiment: SPR T200, pH 7; sample T0
[5] = biological target: T2, human IL-18Rβ on cells; experiment: cell-based or functional assay; remark: listed apart in the source
[6] = biological target: T2, human IL-18Rβ on cells; experiment: cell-based or functional assay; remark: listed apart in the source
[7] = biological target: T2, human IL-18Rβ on cells; experiment: cell-based or functional assay; remark: listed apart in the source
[8] = biological target: T2, human IL-18Rβ on cells; experiment: cell-based or functional assay; remark: listed apart in the source
[9] = biological target: T1, huIL-18Rβ-HisAvi; experiment: SPR T200, pH 7; control

B1: P20 (antibody, human IgG1, kappa)
heavy: QVQLQQSGPGLVKPSETLSLTCTVSGGSINNYYWSWIRQPPGKGLEWIGYIFYSGTTNYNPSLKSRVTISVDTSKNQFSLKLSSVTAADTAVYYCARDVGIAARNSYYYVMDVWGQGTTVTVSSASTKGPSVFPLAPSSKSTSGGTAALGCLVKDYFPEPVTVSWNSGALTSGVHTFPAVLQSSGLYSLSSVVTVPSSSLGTQTYICNVNHKPSNTKVDKRVEPKSCDKTHTCPPCPAPEAEGAPSVFLFPPKPKDTLMISRTPEVTCVVVDVSHEDPEVKFNWYVDGVEVHNAKTKPREEQYNSTYRVVSVLTVLHQDWLNGKEYKCKVSNKALPAPIEKTISKAKGQPREPQVYTLPPSREEMTKNQVSLTCLVKGFYPSDIAVEWESNGQPENNYKTTPPVLDSDGSFFLYSKLTVDKSRWQQGNVFSCSVMHEALHNHYTQKSLSLSPG
light: AIQLTQSPSSLSASVGDRVTITCRASQGISSALAWYQQKPGKAPKFLIYDASSLESGVPSRFSGSGSGTDFTLTISSLQPEDFATYYCQQFNSYPITFGQGTRLEIKRTVAAPSVFIFPPSDEQLKSGTASVVCLLNNFYPREAKVQWKVDNALQSGNSQESVTEQDSKDSTYSLSSTLTLSKADYEKHKVYACEVTHQGLSSPVTKSFNRGEC
notes: Human IgG
- apparent Kd (pooled screen) [1]: 2.35 nM
- apparent koff (pooled screen) [1]: 0.000329 s⁻¹
- apparent kon (pooled screen) [1]: 140000 M⁻¹ s⁻¹
- apparent kon (pooled screen) [2]: 330000 M⁻¹ s⁻¹

B2: P20-V1 (antibody, human IgG1, kappa, V domains shown)
VH: QVQLQESGPGLVKPSETLSLTCTVSGGSINNYYWSWIRQPPGKGLEWIGYIFYSGTTNYNPSLKSRVTISVDTSKNQFSLKLSSVTAADTAVYYCARDVGIAARNSYYYVMDVWGQGTTVTVSS
VL: AIQLTQSPSSLSASVGDRVTITCRASQGISSALAWYQQKPGKAPKFLIYEASSLESGVPSRFSGSGSGTDFTLTISSLQPEDFATYYCQQFNSYPITFGQGTRLEIKR
notes: Variant of P20
- IC50, IFNg, human whole blood LPS+IL-12, Average [3]: 1.6 nM
- IC50, IFNg, human whole blood LPS+IL-12, donor C163 [3]: 1.1 nM
- IC50, IFNg, human whole blood LPS+IL-12, donor C175 [3]: 1.48 nM
- IC50, IFNg, human whole blood LPS+IL-12, donor C177 [3]: 0.47 nM
- IC50, IFNg, human whole blood LPS+IL-12, donor C198 [3]: 4.9 nM
- IC50, IFNg, human whole blood LPS+IL-12, donor C200 [3]: 2.55 nM
- IC50, IFNg, human whole blood LPS+IL-12, donor C205 [3]: 1.56 nM
- IC50, IFNg, human whole blood LPS+IL-12, donor C215 [3]: 1.54 nM
- IC50, IFNg, human whole blood LPS+IL-12, donor C223 [3]: 0.83 nM
- IC50, IFNg, human whole blood LPS+IL-12, donor C229 [3]: 1.3 nM
- IC50, IFNg, human whole blood LPS+IL-12, donor C238 [3]: 0.57 nM
- IC50, IFNg, human whole blood LPS+IL-12, donor C241 [3]: 1.2 nM
- IC50, IFNg, human whole blood LPS+IL-12, donor C245 [3]: 1.22 nM
- IC50, IFNg, human whole blood LPS+IL-12, donor C251 [3]: 1.7 nM
- IC50, IFNg, human whole blood LPS+IL-12, donor C256 [3]: 1.38 nM
- IC50, IFNg, human whole blood LPS+IL-12, donor C257 [3]: 2.22 nM
- Kd [4]: 0.27 nM
- koff [4]: 7.2e-05 s⁻¹
- kon [4]: 270000 M⁻¹ s⁻¹
- Average IC50, IFNg, Crohn's disease LPLs, IL-18+IL-12 [5]: 18.3 nM
- Average IC50, IFNg, healthy (non-IBD) LPLs, IL-18+IL-12 [5]: 39.8 nM
- Average IC50, IFNg, ulcerative colitis LPLs, IL-18+IL-12 [5]: 16.5 nM
- IC50, IFNg, Crohn's disease LPLs, IL-18+IL-12, replicate 1 [5]: 3.82 nM
- IC50, IFNg, Crohn's disease LPLs, IL-18+IL-12, replicate 2 [5]: 15.4 nM
- IC50, IFNg, Crohn's disease LPLs, IL-18+IL-12, replicate 3 [5]: 89.9 nM
- IC50, IFNg, Crohn's disease LPLs, IL-18+IL-12, replicate 4 [5]: 9.47 nM
- IC50, IFNg, Crohn's disease LPLs, IL-18+IL-12, replicate 5 [5]: 19.6 nM
- IC50, IFNg, Crohn's disease LPLs, IL-18+IL-12, replicate 6 [5]: 5.68 nM
- IC50, IFNg, Crohn's disease LPLs, IL-18+IL-12, replicate 7 [5]: 0.9 nM
- IC50, IFNg, Crohn's disease LPLs, IL-18+IL-12, replicate 8 [5]: 1.33 nM
- IC50, IFNg, healthy (non-IBD) LPLs, IL-18+IL-12, replicate 1 [5]: 12.8 nM
- IC50, IFNg, healthy (non-IBD) LPLs, IL-18+IL-12, replicate 2 [5]: 9.57 nM
- IC50, IFNg, healthy (non-IBD) LPLs, IL-18+IL-12, replicate 3 [5]: 44.8 nM
- IC50, IFNg, healthy (non-IBD) LPLs, IL-18+IL-12, replicate 4 [5]: 132 nM
- IC50, IFNg, healthy (non-IBD) LPLs, IL-18+IL-12, replicate 5 [5]: 0.0116 nM
- IC50, IFNg, ulcerative colitis LPLs, IL-18+IL-12, replicate 1 [5]: 34.4 nM
- IC50, IFNg, ulcerative colitis LPLs, IL-18+IL-12, replicate 2 [5]: 10.8 nM
- IC50, IFNg, ulcerative colitis LPLs, IL-18+IL-12, replicate 3 [5]: 10.3 nM
- IC50, IFNg, ulcerative colitis LPLs, IL-18+IL-12, replicate 4 [5]: 2.63 nM
- IC50, IFNg, ulcerative colitis LPLs, IL-18+IL-12, replicate 5 [5]: 0.0024 nM
- IC50, IFNg, ulcerative colitis LPLs, IL-18+IL-12, replicate 6 [5]: 0.402 nM
- IC50, IFNg, ulcerative colitis LPLs, IL-18+IL-12, replicate 7 [5]: 56.7 nM
- IC50, IL-18-mediated IFNg release, KG-1 cells, Average [6]: 2.01 nM
- IC50, IL-18-mediated IFNg release, KG-1 cells, Exp. #1 [6]: 0.96 nM
- IC50, IL-18-mediated IFNg release, KG-1 cells, Exp. #2 [6]: 2.1 nM
- IC50, IL-18-mediated IFNg release, KG-1 cells, Exp. #3 [6]: 1.46 nM
- IC50, IL-18-mediated IFNg release, KG-1 cells, Exp. #4 [6]: 1.2 nM
- IC50, IL-18-mediated IFNg release, KG-1 cells, Exp. #5 [6]: 2.94 nM
- IC50, IL-18-mediated IFNg release, KG-1 cells, Exp. #6 [6]: 2.8 nM
- IC50, IL-18-mediated IFNg release, KG-1 cells, Exp. #7 [6]: 2.6 nM
- Average IC50, LPS+IL-12 dependent IFNg production, human whole blood [7]: 1.04 nM
- IC50, IFNg, human whole blood IL-18+IL-12, Average [8]: 2.28 nM
- IC50, IFNg, human whole blood IL-18+IL-12, donor C121 [8]: 3.6 nM
- IC50, IFNg, human whole blood IL-18+IL-12, donor C121 (second row) [8]: 1.3 nM
- IC50, IFNg, human whole blood IL-18+IL-12, donor C175 [8]: 0.5 nM
- IC50, IFNg, human whole blood IL-18+IL-12, donor C237 [8]: 2.74 nM
- IC50, IFNg, human whole blood IL-18+IL-12, donor C238 [8]: 1.35 nM
- IC50, IFNg, human whole blood IL-18+IL-12, donor C249 [8]: 4.29 nM
- IC50, IFNg, human whole blood IL-18+IL-12, donor C252 [8]: 3.23 nM
- IC50, IFNg, human whole blood IL-18+IL-12, donor C253 [8]: 1.24 nM

B3: P21 (antibody, human IgG1, kappa, V domains shown)
VH: QVQLQQSGPGLVKPSETLSLTCTVSGGSISNYYWTWIRQPPGKGLEWIGYISDSGSTNYNPSLKSRVTISVDTSKNQFSLKLSSVTAADTAVYYCARETIVVRGFYFYVMDVWGQGTTVTVSS
VL: B2 VL with K39R, F46L, E50D, S53N, L54W, I96W, R103K, L104V
notes: Human IgG
- Kd [9]: 0.2 nM
- koff [9]: 7e-05 s⁻¹
- kon [9]: 350000 M⁻¹ s⁻¹

From patent US20250230251A1 (Bristol-Myers Squibb, published 2025)
